This passage reports buried contact surface on BHRF1, buried contact surface on Bim-BH3 and Total buried SASA results from patent US20160376333A1.

For assay [1], the target named is Epstein-Barr virus BHRF1 a.a. 1-161 with C-terminal avi-6his tag (Epstein-Barr virus).
The target is the same in assay [2]. This is another data set of the same source.
Assay [3] shares this target. Briefly: crystal structure PDB 2WH6 of Bim-BH3 bound to BHRF1; solvent-accessible surface buried in the complex.

Sequence of Bim-BH3 (peptide) (O43521 141-166): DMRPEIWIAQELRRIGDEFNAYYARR

In assay [1], Bim-BH3 (peptide) had a buried contact surface on BHRF1 of 908 Å2. Moreover, in assay [2], the buried contact surface on Bim-BH3 was 1100 Å2. This substance returned a Total buried SASA in assay [3] of 2000 Å2.
